Experimental findings from PMC3791465 are described below.

One may read the Kd as the equilibrium constant for the complex coming apart.

The experiment has as its target 6 × His-tagged recombinant PHB2, Q99623. As to the kind of experiment: SPR. In general terms: SPR reads the build-up and loss of mass on a sensor chip optically.

6 × His-tagged recombinant PHB2, Q99623, sequence (Q99623 whole entry): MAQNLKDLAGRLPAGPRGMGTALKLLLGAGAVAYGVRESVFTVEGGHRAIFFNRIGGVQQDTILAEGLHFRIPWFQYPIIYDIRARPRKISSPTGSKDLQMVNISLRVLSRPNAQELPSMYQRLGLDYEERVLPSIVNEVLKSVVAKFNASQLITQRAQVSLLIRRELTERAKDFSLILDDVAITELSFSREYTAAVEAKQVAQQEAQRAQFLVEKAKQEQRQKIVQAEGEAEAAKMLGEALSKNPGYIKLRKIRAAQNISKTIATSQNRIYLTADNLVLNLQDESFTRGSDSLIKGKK

On to QMLSDLTLQLRQR (modifications not checked) [ERα activity-regulator synthetic peptide (ERAP)], for which the Kd stood at 18.9 µM.
